Experimental data from US11053476B2, “Generation of cancer stem cells and use thereof” (EXOSTEM BIOTEC LTD., priority 2016, dated 2021).

Assays:
Type in all cases: cell-based
[1] = test system: CSCs generated from differentiated cancer cells; assay: Self-renewal of CSCs (secondary tumorspheres) generated from differentiated cancer cells, factor added to basic protocol
Procedure: (§1) In order to generate CSCs in vitro, both primary differentiated cancer cells (primary glioma cells) as well as cells from a cancer cell line (U87 cells) were obtained. Glioma cells and U87 cells were trypsinized, and washed three times with medium +10% FCS. The cells were then resuspended in medium that was brought to a pH of 6.0 and were placed on a rotator and incubated for 45-90 minutes. The cells were then incubated in medium supplemented with EGF and FGF. The cells were optionally kept in mild hypoxic conditions (2-3% oxygen) during this second incubation and were then plated on bacterial plates.
(§2) Tumorspheres formed on these plates within one week and were removed from the cells that had attached to the dish. The tumorspheres were disaggregated and the cells were re-plated at limiting dilution to generate secondary spheroids. The secondary tumorspheres were then characterized for CSC specific markers, the ability to self-renew and the ability to generate tumors that recapitulate the parental tumors.
Knowing that the basic protocol for generating CSCs (acid, EGF/FGF and two rounds of sphere generation) was successful; several modifications to the protocol were examined. […]

Sox2 = Sox2 expression in generated CSCs, factor added to basic protocol
Procedure: as §1, §2
Knowing that the basic protocol for generating CSCs (acid, EGF/FGF and two rounds of sphere generation) was successful; several modifications to the protocol were examined. […] Second, a wide range of factors were found, that when supplemented to the EGF and FGF containing media, increased the efficacy of the protocol, either by increasing the number of CSCs produced or by increasing their stemness.

[2] = test system: differentiated cancer cells; assay: Efficacy and penetrance of dedifferentiation with transcription and secreted factors; settings: expression in the cells or in their media during second incubation or tumorsphere formation
Procedure: as §1, §2
Lastly, several transcription factors and secreted factors that are known to enhance stemness or cancer progression were introduced into the differentiated cells during the second incubation or during tumorsphere formation.

B1: IL10: anti-inflammatory cytokine (protein, UniProt P22301 19-178, looked up)
Interleukin-10: SPGQGTQSENSCTHFPGNLPNMLRDLRDAFSRVKTFFQMKDQLDNLLLKESLLEDFKGYLGCQALSEMIQFYLEEVMPQAENQDPDIKAHVNSLGENLKTLRLRLRRCHRFLPCENKSKAVEQVKNAFNKLQEKGIYKAMSEFDIFINYIEAYMTMKIRN
B1 was tested, and the “effect on rate of self-renewal” value ([1]; cytokine supplemented to second incubation media, FIG. 4A) was “no effect” and the “effect on Sox2 expression” value (Sox2; cytokine supplemented to second incubation media, FIG. 4B) was “no effect”.

B2: PKC epsilon: protein kinase C epsilon; activators or overexpression (protein, UniProt Q02156 1-737, looked up)
Protein kinase C epsilon type: MVVFNGLLKIKICEAVSLKPTAWSLRHAVGPRPQTFLLDPYIALNVDDSRIGQTATKQKTNSPAWHDEFVTDVCNGRKIELAVFHDAPIGYDDFVANCTIQFEELLQNGSRHFEDWIDLEPEGRVYVIIDLSGSSGEAPKDNEERVFRERMRPRKRQGAVRRRVHQVNGHKFMATYLRQPTYCSHCRDFIWGVIGKQGYQCQVCTCVVHKRCHELIITKCAGLKKQETPDQVGSQRFSVNMPHKFGIHNYKVPTFCDHCGSLLWGLLRQGLQCKVCKMNVHRRCETNVAPNCGVDARGIAKVLADLGVTPDKITNSGQRRKKLIAGAESPQPASGSSPSEEDRSKSAPTSPCDQEIKELENNIRKALSFDNRGEEHRAASSPDGQLMSPGENGEVRQGQAKRLGLDEFNFIKVLGKGSFGKVMLAELKGKDEVYAVKVLKKDVILQDDDVDCTMTEKRILALARKHPYLTQLYCCFQTKDRLFFVMEYVNGGDLMFQIQRSRKFDEPRSRFYAAEVTSALMFLHQHGVIYRDLKLDNILLDAEGHCKLADFGMCKEGILNGVTTTTFCGTPDYIAPEILQELEYGPSVDWWALGVLMYEMMAGQPPFEADNEDDLFESILHDDVLYPVWLSKEAVSILKAFMTKNPHKRLGCVASQNGEDAIKQHPFFKEIDWVLLEQKKIKPPFKPRIKTKRDVNNFDQDFTREEPVLTLVDEAIVKQINQEEFKGFSYFGEDLMP
In the case of B2, the “effect on Sox2 expression” value (Sox2; PKC activation, FIG. 6B) is reported as “increase Sox2 expression” and the “effectiveness on Sox2 expression compared with PMA” value (Sox2; PKC activation, FIG. 6B) is reported as “more effective that PMA”.

B3: Lin-28: overexpressed factor, called miR in b196 and protein in b22 (protein, UniProt Q9H9Z2 2-209, looked up)
Protein lin-28 homolog A: GSVSNQQFAGGCAKAAEEAPEEAPEDAARAADEPQLLHGAGICKWFNVRMGFGFLSMTARAGVALDPPVDVFVHQSKLHMEGFRSLKEGEAVEFTFKKSAKGLESIRVTGPGGVFCIGSERRPKGKSMQKRRSKGDRCYNCGGLDHHAKECKLPPQPKKCHFCQSISHMVASCPLKAQQGPSAQGKPTYFREEEEEIHSPTLLPEAQN
For B3, the “self-renewal over the basic protocol” value ([1]; overexpressed miR or polynucleotide inhibitor, FIG. 7A) was “improved” and the “Sox2 expression over the basic protocol” value (Sox2; overexpressed miR or polynucleotide inhibitor, FIG. 7B) was “improved”.

B4: RUNX2: transcription or secreted factor expressed in the cells or in their media (protein, UniProt Q13950 1-521, looked up)
Runt-related transcription …: MASNSLFSTVTPCQQNFFWDPSTSRRFSPPSSSLQPGKMSDVSPVVAAQQQQQQQQQQQQQQQQQQQQQQQEAAAAAAAAAAAAAAAAAVPRLRPPHDNRTMVEIIADHPAELVRTDSPNFLCSVLPSHWRCNKTLPVAFKVVALGEVPDGTVVTVMAGNDENYSAELRNASAVMKNQVARFNDLRFVGRSGRGKSFTLTITVFTNPPQVATYHRAIKVTVDGPREPRRHRQKLDDSKPSLFSDRLSDLGRIPHPSMRVGVPPQNPRPSLNSAPSPFNPQGQSQITDPRQAQSSPPWSYDQSYPSYLSQMTSPSIHSTTPLSSTRGTGLPAITDVPRRISDDDTATSDFCLWPSTLSKKSQAGASELGPFSDPRQFPSISSLTESRFSNPRMHYPATFTYTPPVTSGMSLGMSATTHYHTYLPPPYPGSSQSQSGPFQTSSTPYLYYGTSSGSYQFPMVPGGDRSPSRMLPPCTTTSNGSTLLNPNLPNQNDGVDADGSHSSSPTVLNSSGRMDESVWRPY
B4 was tested, and the “effect on dedifferentiation brought about by the standard protocol” value [2] was “increase the efficacy and penetrance of the dedifferentiation”.

B5: CEBP/B: transcription or secreted factor expressed in the cells or in their media (protein, UniProt P17676 1-345, looked up)
CCAAT/enhancer-binding …: MQRLVAWDPACLPLPPPPPAFKSMEVANFYYEADCLAAAYGGKAAPAAPPAARPGPRPPAGELGSIGDHERAIDFSPYLEPLGAPQAPAPATATDTFEAAPPAPAPAPASSGQHHDFLSDLFSDDYGGKNCKKPAEYGYVSLGRLGAAKGALHPGCFAPLHPPPPPPPPPAELKAEPGFEPADCKRKEEAGAPGGGAGMAAGFPYALRAYLGYQAVPSGSSGSLSTSSSSSPPGTPSPADAKAPPTACYAGAAPAPSQVKSKAKKTVDKHSDEYKIRRERNNIAVRKSRDKAKMRNLETQHKVLELTAENERLQKKVEQLSRELSTLRNLFKQLPEPLLASSGHC
In the case of B5, the “effect on dedifferentiation brought about by the standard protocol” value [2] is reported as “increase the efficacy and penetrance of the dedifferentiation”.

B6: WNT5A: transcription or secreted factor expressed in the cells or in their media (protein, UniProt P41221 62-380, looked up)
Protein Wnt-5a: IIGAQPLCSQLAGLSQGQKKLCHLYQDHMQYIGEGAKTGIKECQYQFRHRRWNCSTVDNTSVFGRVMQIGSRETAFTYAVSAAGVVNAMSRACREGELSTCGCSRAARPKDLPRDWLWGGCGDNIDYGYRFAKEFVDARERERIHAKGSYESARILMNLHNNEAGRRTVYNLADVACKCHGVSGSCSLKTCWLQLADFRKVGDALKEKYDSAAAMRLNSRGKLVQVNSRFNSPTTQDLVYIDPSPDYCVRNESTGSLGTQGRLCNKTSEGMDGCELMCCGRGYDQFKTVQTERCHCKFHWCCYVKCKKCTEIVDQFVCK
For B6, the “effect on dedifferentiation brought about by the standard protocol” value [2] was “increase the efficacy and penetrance of the dedifferentiation”.

B7: COX2: transcription or secreted factor expressed in the cells or in their media (protein, UniProt P35354 18-604, looked up)
Prostaglandin G/H synthase 2: ANPCCSHPCQNRGVCMSVGFDQYKCDCTRTGFYGENCSTPEFLTRIKLFLKPTPNTVHYILTHFKGFWNVVNNIPFLRNAIMSYVLTSRSHLIDSPPTYNADYGYKSWEAFSNLSYYTRALPPVPDDCPTPLGVKGKKQLPDSNEIVEKLLLRRKFIPDPQGSNMMFAFFAQHFTHQFFKTDHKRGPAFTNGLGHGVDLNHIYGETLARQRKLRLFKDGKMKYQIIDGEMYPPTVKDTQAEMIYPPQVPEHLRFAVGQEVFGLVPGLMMYATIWLREHNRVCDVLKQEHPEWGDEQLFQTSRLILIGETIKIVIEDYVQHLSGYHFKLKFDPELLFNKQFQYQNRIAAEFNTLYHWHPLLPDTFQIHDQKYNYQQFIYNNSILLEHGITQFVESFTRQIAGRVAGGRNVPPAVQKVSQASIDQSRQMKYQSFNEYRKRFMLKPYESFEELTGEKEMSAELEALYGDIDAVELYPALLVEKPRPDAIFGETMVEVGAPFSLKGLMGNVICSPAYWKPSTFGGEVGFQIINTASIQSLICNNVKGCPFTSFSVPDPELIKTVTINASSSRSGLDDINPTVLLKERSTEL
With B7 the “effect on dedifferentiation brought about by the standard protocol” value [2] was “increase the efficacy and penetrance of the dedifferentiation”.
